Starred links: 1 amine or outer side, 2 acyl side, 3 side chain; linkers in the order of their positions; H or OH if unused. Non-standard residues stand in square brackets, D forms with d. Groups on a side chain read outwards from the residue. No end group written: not given here. *: point of attachment. C20 diacid = O=C(O)CCCCCCCCCCCCCCCCCCC(=O)*; γGlu = O=C(O)[C@H](CCC(=O)[*:2])N[*:1]; αMeL = CC(C)C[C@](C)(N)C(=O)O; αMeK = C[C@](N)(CCCCN)C(=O)O; Iva = CC[C@](C)(N)C(=O)O; AEEA = NCCOCCOCC(=O)O; Aib = CC(C)(N)C(=O)O
T1: human glucose-dependent insulinotropic polypeptide receptor (human, UniProt P48546 22-466)
T1 sequence (looked up): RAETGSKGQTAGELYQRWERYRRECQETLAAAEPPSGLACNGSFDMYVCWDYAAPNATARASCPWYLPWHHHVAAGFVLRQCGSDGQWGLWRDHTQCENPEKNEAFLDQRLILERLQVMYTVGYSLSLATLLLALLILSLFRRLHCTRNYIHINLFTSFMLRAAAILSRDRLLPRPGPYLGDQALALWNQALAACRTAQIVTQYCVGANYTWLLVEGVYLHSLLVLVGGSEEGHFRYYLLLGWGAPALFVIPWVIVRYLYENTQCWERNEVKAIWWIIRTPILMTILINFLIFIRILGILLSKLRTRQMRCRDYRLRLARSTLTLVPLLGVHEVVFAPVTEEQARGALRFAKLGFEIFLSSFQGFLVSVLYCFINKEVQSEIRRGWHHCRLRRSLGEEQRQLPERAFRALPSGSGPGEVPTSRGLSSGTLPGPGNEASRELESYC

B1: Compound No. 0133 (peptide)
peptide: H[Aib]HGTFTSDLS[αMeK]LLEK([AEEA-AEEA-γGlu-C20 diacid])KAA[Iva]EFVEWLIEGGPSSGAPPPS-NH2
modifications: N-terminus assumed
SMILES: CC[C@H](C)[C@H](NC(=O)[C@H](CC(C)C)NC(=O)[C@H](Cc1c[nH]c2ccccc12)NC(=O)[C@H](CCC(=O)O)NC(=O)[C@@H](NC(=O)[C@H](Cc1ccccc1)NC(=O)[C@H](CCC(=O)O)NC(=O)[C@](C)(CC)NC(=O)[C@H](C)NC(=O)[C@H](C)NC(=O)[C@H](CCCCN)NC(=O)[C@H](CCCCNC(=O)COCCOCCNC(=O)COCCOCCNC(=O)CC[C@H](NC(=O)CCCCCCCCCCCCCCCCCCC(=O)O)C(=O)O)NC(=O)[C@H](CCC(=O)O)NC(=O)[C@H](CC(C)C)NC(=O)[C@H](CC(C)C)NC(=O)[C@](C)(CCCCN)NC(=O)[C@H](CO)NC(=O)[C@H](CC(C)C)NC(=O)[C@H](CC(=O)O)NC(=O)[C@H](CO)NC(=O)[C@@H](NC(=O)[C@H](Cc1ccccc1)NC(=O)[C@@H](NC(=O)CNC(=O)[C@H](Cc1c[nH]cn1)NC(=O)C(C)(C)NC(=O)[C@@H](N)Cc1c[nH]cn1)[C@@H](C)O)[C@@H](C)O)C(C)C)C(=O)N[C@@H](CCC(=O)O)C(=O)NCC(=O)NCC(=O)N1CCC[C@H]1C(=O)N[C@@H](CO)C(=O)N[C@@H](CO)C(=O)NCC(=O)N[C@@H](C)C(=O)N1CCC[C@H]1C(=O)N1CCC[C@H]1C(=O)N1CCC[C@H]1C(=O)N[C@@H](CO)C(N)=O

Assays:
Assay in all cases: cell-based or functional assay
[1] = molecular target: human glucagon-like peptide-1 receptor (human, UniProt P43220 24-463)
[2] = molecular target: T1, human glucose-dependent insulinotropic …
human glucagon receptor = human glucagon receptor (human, UniProt P47871 26-477)
Chain of human glucagon receptor (P47871 26-477): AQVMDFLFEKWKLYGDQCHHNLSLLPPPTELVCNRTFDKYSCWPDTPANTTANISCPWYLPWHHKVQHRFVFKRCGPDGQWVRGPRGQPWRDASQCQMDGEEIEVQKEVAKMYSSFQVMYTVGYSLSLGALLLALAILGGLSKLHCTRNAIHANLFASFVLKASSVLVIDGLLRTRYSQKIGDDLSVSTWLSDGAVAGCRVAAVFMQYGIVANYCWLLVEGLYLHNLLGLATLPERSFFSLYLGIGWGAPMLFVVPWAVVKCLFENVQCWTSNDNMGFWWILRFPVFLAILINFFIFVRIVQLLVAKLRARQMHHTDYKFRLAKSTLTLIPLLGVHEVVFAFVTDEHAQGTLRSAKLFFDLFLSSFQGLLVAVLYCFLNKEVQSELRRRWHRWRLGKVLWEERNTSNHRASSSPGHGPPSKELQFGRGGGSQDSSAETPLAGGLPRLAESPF

| Binder | Activity against human GLP-1R (EC50 nM) [1] | Activity against human GIPR (EC50 nM) [2] | Activity against human GCGR (EC50 nM) (human glucagon receptor) |
| --- | --- | --- | --- |
| H[Aib]HGTFTSDLSI[αMeL]LEK([AEEA-AEEA-γGlu-C20 diacid])KAA[Iva]EFVEWLLAGGPSSGAPPPS-NH2 [Compound No. 0138] | 0.019 nM | 0.0006 nM | 0.055 nM |
| B1 | 0.016 nM | 0.002 nM | 0.03 nM |
| H[Aib]HGTFTSDYSI[αMeL]LEK([AEEA-AEEA-γGlu-C20 diacid])KAA[Iva]EFVEWLLAGGPSSGAPPPS-NH2 [Compound No. 0137] | 0.013 nM | 0.001 nM | 0.047 nM |

Reference: EP4745153A1, “GLP-1, GIP AND GCG RECEPTOR […] USE THEREOF” (Jiangsu Hengrui Pharmaceuticals Co., Ltd., priority 2023, dated 2025)
